# Measured values taken from a protein production outcome set (Wang et al. 2014).
# Experiment: label from the status in PepcDB records
# 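Further: failed if final PepcDB status was selected cloned or expressed and not failed if soluble or beyond.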
row,Sequence,protein production
1,MTALHDLPGTRLLALFARRELSPGEYYEHLLAHIQRWEPHLNALYRFDPQRVREQAAAATERWRKGQPKGPLDGLPVTIKELIATAGEPIPLGSAATALQPAPCDAPPAARLREAGAIVLAKTTVPDFGMLSSGLSSFHGVTRNPWNLANNTGGSSSGAAAAATAGYGPLHLGTDIGGSVRLPAGWCGLVGFKPSLGRIPIDPYYTGRCAGPMTRCMDDCLLLMRYLAQPDARDATSLPPEVLDWSAEPLSVRGLRVGLQLDPGCGLQPDAEIRAAIEAAARLFEEHGAQLRIVEPLMDRSLLDGLNDFWRARLWSELLLLDETRRARVLPYVHAWAEGGARVSGVDAVRGFNQTFEMRRRAARLFGEIDLLLTPTNQVEAFPADWASPLNDPQRPFEHIVFTVPWNMGEQPALSINCGFTAAGMPIGLQLVAPRFADTWLLRIGKTYEGWRGPIHGWP,failed
2,MASADKLINTDVPEKDVFAFHFLQSLSNLRKQNPFDTPDQKNYRVRKIKKAAYVSMARAAGGSSRLWSRALLRRADKDDNKIVRFSRRKWKISSKRRRSNQRAPVVEEAAERLRNLVPGGGGMETSKLMEETAHYIKCLSMQVKVMQCLVDGLSPK,failed
3,MTPASAVPAHPCPPGPNALRRRLLQAALSTGVLASIGTAAPAAASAHATSTPSKPMDLYAYVGSRTTRERNARGDGISVFRVDTQTGGLAPVQLVKDLVNPSFLALNPAGDRLYTVHGDLADISAFAVDRASGRLSFINRQSTQGKNPVHLALDPSGRFVVVTNHIGASLAVLPLAADGALGEVTQLVKLDGPIGPHRIEQKQAKPHFNRFDPAGRFVIVPDKGLDRTFAFRFAEGRLTPATPSFVSAREGAGPRHVAFRPDGRVAYVVNELDSTVTTYGYDAGTATLTPLQVLPSLPDTFTGNSRASEIKVDAAGRFVYASNRGHDSIAVFRIDAASGLLRFVAAEPSLGRTPRFFTIAPGGRFLYALNEDSDSIVAFAIDPHTGRLHPTGTRAQSGSPVCMVFSTPAA,failed
4,MSAIRSRRSLLIPVLIVALLHVYIGVRLLPGLPVPMIVHSLAVLWLIASTLLMPAALMARRLSTPWADQLSWVGMMAMGFFSSLLVLTIARDLFLLVTLAIGWRPPGLTGYSALGAIALALAVTVIGFFQARGLAKVKEVDVPIANLPDALHGFTIAQISDIHVGPTIKRPYIDRIVDRVNSLAPDAIAITGDLVDGSVRELSAHTAPFARLSARHGAYVVTGNHEYYSGAEAWIVELRRLGLRVLMNEHVVVERGDASLVLGGVTDFTAGGFIESHRSDPVQALDGAPRDAAARVLLAHQPRTAPAAAAAGFDLQLSGHTHGGQFWPWNLFVPMQQPYVHGLNRHDNLWVYVSRGTGYWGPPKRFGAPSEITLVRLVRG,failed
5,MSQTSLEPLIISIIKLQILQLWLKLIAVGWNLGSNDDELYTELWKACAGPLVEVPRYGERVFYFPQGHMEQLVASTNQGVVDQEIPVFNLPPKILCRVLSVTLKAEHETDEVYAQITLQPEEDQSEPTSLDPPLVEPAKPTVDSFVKILTASDTSTHGGFSVLRKHATECLPSLDMTQPTPTQELVARDLHGYEWRFKHIFRGQPRRHLLTTGWSTFVTSKRLVAGDAFVFLRGETGDLRVGVRRLAKQQSTMPASVISSQSMRLGVLATASHAVTTTTIFVVFYKPRISQFIISVNKYMMAMKNGFSLGMRYRMRFEGEESPERIFTGTIIGSGDLSSQWPASKWRSLQIQWDEPSSIQRPNKVSPWEIEPFSPSALTPTPTQQQSKSKRSRPISEITGSPVASSFLSSFSQSHESNPSVKLLFQDPATERNSNKSVFSSGLQCKITEAPVTSSCRLFGFDLTSKPASATIPHDKQLISVDSNISDSTTKCQDPNSSNSPKEQKQQTSTRSRIKVQMQGTAVGRAVDLTLLRSYDELIKELEKMFEIEGELSPKDKWAIVFTDDEGDRMLVGDDPWNEFCKMAKKLFIYPSDEVKKMRSKSLLGDKGTIVNLESDQRTVHV,failed
6,MAFTESDVYNNEAFFKQYMKRRYRENSPNELIEKPAFFQLIGDVKGKKILDLGCGDAIFGKELLEKDCHSYTGIEGSELMYEKAKKQLENKNGIVHFLNLKDYTYPPATFDLVTSRLALHYIEHLPIIFQNVYETLKTNGTFTFSVQHPVITSSFESLQTSGKRTSWLVDDYFKTGKRVEPWIDQKVIKYHRTTEEYFTLLQQAGFTITNLKEATPNQTYFQSAEEYERRLRIPLFLLFSCRKLEHHHHHH,not failed
7,DIAARRHTGVIPTHHQFITNERFGDLLNIDDTAKRKSGSEMRPARAKFDFKAQTLKELPLQKGDIVYIYKQIDQNWYEGEHHGRVGIFPRTYIELLPPAEKAQPKKLTPVQVLEYGEAIAKFNFNGDTQVEMSFRKGERITLLRQVDENWYEGRIPGTSRQGIFPITYVDVIKRPLVKNPVDYMDLPF,failed
8,MKTNSEELTVFVQVVESGSFSRAAEQLEMANSAVSRIVKRLEEKLGVNLLNRTTRQLNLTEEGAQYFRRAQRILQEMAAAETEMLAVHEVPQGVLRVDSAMPMVLHLLAPLAAKFNERYPHIRLSLVSSEGYINLIERKVDIALRAGELDDSGLRARHLFDSHFRVVASPEYLAKHGTPQSAEDLANHQCLGFTEPGSLNTWAVLDAQGNPYKISPHFTASSGEILRSLCLSSCGIACLSDFLVDNDITEGKLIPLFAEQTSNKTHPFNAVYYSDKAVNLRLRVFLDFLVKELGKNMNRTNTK,not failed
9,MSLALYLGNKRMNDMYYTIGQVAKMQHLTISQIRYYDKQGLFPFLQRNEKGDRIFNEEALKYLEMILCLKNTGMPIQKIKQFIDWSMEGDSTILHRLKLMKQQEANVLQLIQDTEKNLKKIQQKIAKYEDEISSANATTKEGHHHHHH,not failed
10,MTKTWEQLSAIQPIGVKMLMNSIAKERISHAYLLEGEKGTGKFATAIQMAKSFLCSQRNRVEPCHVCTNCKRIDSGNHPNLHIVKPDGLSIKKQQIHDLQEEFSKTGLEANKKVYIIEHADRMTANAANALLKFLEEPSSDTTAILLTEQSHQILNTILSRCQVVTFRPLPTESLIRRLQDEGITVSLSTLAAQLTNSFDEALTLCNDEWFAQARALVIKLCEALEKDKASIFFVQEKWGKHFGEKEQLQQGLDMLLLIYKDLLYVQLGEEDRLVFREQKEMFESFSYAQKRIVSALFNILEAKNRINANVNAQLVFEQLVLRLQEG,failed
11,MYGGAGLYKFDKLSDWMVYLDRLSKDKPVEEGWTATVFLCIRQSDKRMIGICNVRHHLNSLGLLNVSGHIGYSIRPDERKKGYAKVQLRLALLEAKKLGIDKVLVTCADWNIGSERTILANGGVYEDSRLDESTGNMMKRYWINVTERNSI,failed
12,MIDVPFLKNVTLKKENIPSFSAYPYCLPAIRTLQSLAFHPNVTFIIGENGTGKSTLLEGIAIALGFNAEGGTKNFRFSTNDSHSSLHEYLRISKSFNTPSDGFFLRAESFYNVASYIDEIDADLEARGNPVIDSYGGISLHEQSHGESFFSLFMNRFSGQGLYILDEPEAALSPMRQLSMLIRMHELAEQGSQFVIATHSPILMAYPESTIYSLTQEGIQESALEDTEHYQTTKLFFENRDRLFHHLFNSLEHHHHHH,not failed
13,MLRLARKGLQTAVVRSYAKDVKFGAEGRQAMLVGVNLLADAVSVTMGPKGRNVIIEQSWGSPKITKDGVTVAKSIDLKDKYQNLGAKLIQDVANKANEEAGDGTTCATVLARAIAKEGFESIRQGGNAVEIRRGVMNAVEVVVAELKKISKKVTTPEEIAQVATISANGDTVVGNLISDAMKKVGTTGVITVKDGKTLNDELELIEGMKFDRGYISPYFITSAKGAKVEYEKALVLLSEKKISQVQDIVPALELANKLRRPLVIIAEDVDGEALTTLVLNRLKVGLQVVAIKAPGFGDNRKNTLKDMGIATGATIFGDDSNLIKIEDITANDLGEVDEVTITKDDTLLLRGRGDQTEIEKRIEHITDEIEQSTSDYEKEKLNERLAKLSKGVAVLKIGGGSEVEVGEKKDRVTDALCATRAAVEEGIVPGGGVALLRSLTALKNYKAANEDQQIGVNIVKKALTQPIATIVKNAGLEPSSIIDEVTGNSNTSYGYDALNGKFVDMFEAGIIDPTKVVRTALQDASGVASLLATTECVVTEIPKEEAVGGPAGGMGGMGGMGGMGGMGF,not failed
14,PTRQVLQGSRCRLEPLTLAHASDLFAAHQLAPDARSWTWLLREPESNLAEFSAWVEQVATLADPIHFAVVDQQRGKAVGSLALMRIDIAHGVVEVGHVHFSPLLSRTAMATEAHWLLMQYVFDTLGYRRYEWKCNSLNIPSARAARRLGFQYEGRFRQALVSKGHNRDTDWFSVIDGEWPELD,failed
15,ALSDGVHKIEFEHGTTSGKRVVYVDGKEEIRKEWMFKLVGKETFYVGAAKTKATINIDAISGFAYEYTLEINGKSLKKYMEDRSKTTNTWVLHMDGENFRIVLEKDAMDVWCNGKKLETAGEFVDDGTETHFSIGNHDCYIKAVSSGKRKEGIIHTLIVDNREIPEIAS,failed
16,MIDRPLEGKVAFITGAARGLGRAHAVRLAADGANIIAVDICEQIASVPYPLSTADDLAATVELVEDAGGGIVARQGDVRDRASLSVALQAGLDEFGRLDIVVANAGIAMMQAGDDGWRDVIDVNLTGVFHTVQVAIPTLIEQGTGGSIVLISSAAGLVGIGSSDPGSLGYAAAKHGVVGLMRAYANHLAPQNIRVNSVHPCGVDTPMINNEFFQQWLTTADMDAPHNLGNALPVELVQPTDIANAVAWLASEEARYVTGVTLPVDAGFVNKR,not failed
17,MTAPGSMPLTVIGGFLGAGKTTLLNYLLKVQHSERVLVMVNDFGSINIDAELLDQGRHDRPGVVRLQNGCVCCSIGGDLMQAFLQVMSMPDRPDRIIVEASGVADPTRIAQIGRVSGGLSDEGVITLVDASAVRTLAADKYVGDIVRQQILSADIVLLNKLDLSSDAEIVETRAWLRDLAPRTRVVSCIHGEVDAVSVLGIGAGKVAPDAAGGPVDVPVPDLRRASTRHADTFHSSTLATAHRFDRRRIEYALDALPQTVLRGKGFVELEGEATPALLQLCGSRWTLDPVSTPAPPAGTHLVFIATGGRGVPRFDAPSHFEQALASRDAASADTSNLEHHHHHH,not failed
18,MGILDRFEKGLENVVNGAFAKAFRSQVEPVELAGALRREADNKAAVVSRGRTLTANHYSIELSPTDFDRLSGLENELRSDLRQVIGDHAVEQAYSFVGPVSVEFVEAEDLDTGMYRVVSSTQRPDGSPAAQPANRGGYDPVSRSHNIVGEGQANSGSRPVPPRRTPEPAPARPAATSRPASAPVRQAAPARSRTISASVTIHGQDYELHQGTNVFGRSSSSSDYVIDDPGVSRRHFEITVERDHAVANDLGSTNGTLLRGRKLTSANLSDGDVLMAGDAEVRYHENEQDAQ,failed
19,MSQQPESDRTEGDLRNTGMELKHERTWDYELDRIVDAVEERDAMKVGLQFPEGLKRRAGRVADDLRRLLPDETTVLLSGQPCYGACDLDTYMMRRTDVFVHFGHSPMKESDKIIYVPLFSNVEVTPIMEEARAELAAPEEDDAVGLVTTAQHMNRFDEMQAWLEERGYTVETRRGDERLTHEGQVLGCNYASADVDADQILYVGGGKFHPLGLAMEHPDKKVIIADPVNNAVHVADTEQFMKQRYAAVHKAMDAEEWGVIFCTKIGQGRWDTAEEIVEANDNAYLITMDEVTPDRLTNFGFDAYVNTGCPRITTDDGPQFKQPMLTPGEYKIAIGEKPMDSLSFDTFHGTW,failed
20,MNNTQQFSLSMRLFHWAMAALVISMLAAGLLMVRSLEPWQLSILTVHKAFGVVAAALVIARLMNRLFHQIPALPGDLSSLQTFVAKASHWLLYLLLFAMPISGYLMQYFAGRPIDVFGWFRLPSALTVNIENYAIFRELHGWLAIALMALVALHVAAALHHHFIRKDTVLKSML,failed
21,MMSKVVSKMKSFLGFDEFEDEDEVMEEEEVMEEEESFAPVLSSKKNGKVVNIHTANTAKLMITKPLVYDDATEICTALKNRKIVVINTTSLELRTAQRLIDFVGGACYALCGELQEVEKGVFIVSPSNVEVSNELKSELSNKGMFNWASKLEHHHHHH,not failed
22,MVPLPRSMRVLHWLTVLCLVMAASLILLRAELEGRALRQWLLEGHRHFGLMVLLLFVLRVSLRLRLRALPPGPPSPLIMRLAAGGTHVAMYALMLALPLIGWSLSNAYGKTVYLFGITLPNLVAADEDLADTLGTWHLNAAWALLALVAVHIVAALVHHLVLRDGLLHRVLPGKHHR,failed
